Measurements as given in patent US20160287696A1, “PAN POLLEN IMMUNOGENS AND METHODS AND USES FOR IMMUNE RESPONSE MODULATION” (LA JOLLA INSTITUTE FOR ALLERGY AND IMMUNOLOGY, priority 2013, published 2016).

B1: NTGA 7: Phl p wild type sequence, Table 2 (protein)
chain: MAFEKIKVANPIVEMGDEMTRVFWQSIKEKLIFPFLDLDIKYYDLGVLHRDATDDKVTVEAAEATLKYNVAIKCATITPDEDRVKEFNLKQMWRSPNGTIRNIINGTVFREPIICKNVPKLVPGWTKPICIGRHAFGDQYRATDAVLKGPGKLRLVFEGKDETVDLEVFNFTGAGGVALAMYNTDESIQGFAEASMAIAYEKKWPLYLSTKNTILKKYDGRFKDIFQAVYEADWKSKYEAAGIWYEHRLIDDMVAYALKSEGGYVWACKNYDGDVQSDFLAQGFGSLGLMTSVLMCPDGKTIEAEAAHGTVTRHFRVHQKGGETSTNSIASIFAWTRGLAHRAKLDDNARLLDFTQKLEDACVGTVESGKMTKDLALLVHGSSKVTRGDYLNTEEFIDAVAAELQSRLAAN
modifications: Phleum Pratense
B2: NTGA 2: Phl p wild type sequence, Table 2 (protein)
chain: MASPALISDTDQWKALQAHVGAIHKTHLRDLMADADRCKALTAEFEGVFLDYSRQQATTETVDKLFKLAEAAKLKEKIAKMFNGDKINSTENRSVLHVALRAPRDAVINSDGVNVVPEVWAVIDKIKQFSETFRSGSWVGATGKPLTNVVSVGIGGSFLGPLFVHTALQTDPEAAESAKGRQLRFLANVDPVDVARSIKDLDPETTLVVVVSKTFTTAETMLNARTIKEWIVSSLGPQAVSKHMIAVSTNLKLVKEFGIDPNNAFAFWDWVGGRYSVCSAVGVLPLSLQYGFPIVQRFLEGASSIDNHFRTASFEKNIPVLLGLLSVWNVSFLGYPARAILPYSQALEKLAPHIQQLSMESNGKGVSIDGVPLPYEAGEIDFGEPGTNGQHSFYQLIHQGRVIPCDFIGVIKSQQPVYLKGETSNHDELMSNFFAQPDALASRKTPAPLRSENVSENLIPHKTFKGNRPSLSFLLSSLSAYEIGQLLAIYEHRIAVQGFIWGINSFDQWGVELGKSLASQVRKQLHASRMEGKPVEGFNPSSASLLARYLAVEPSTPYDTTVLPKV
modifications: Phleum Pratense
B3: NTGA 24: Phl p wild type sequence, Table 2 (protein)
chain: MATKRSVGTLGEADLKGKKVFLRADLNVPLDDAQKITDDTRIRASIPTIKFLLEKGAKVILASHLGRPKGVTPKFSLKPLVPRLSELLGVEVVMANDCIGEEVEKLAAALPEGGVLLLENVRFYKEEEKNDPEFAKKLASVADLYVNDAFGTAHRAHASTEGVTKFLRPSVAGFLMQKELDYLVGAVANPKKPFAAIVGGSKVSSKIGVIESLLAKVDILILGGGMIFTFYKAQGKAVGKSLVEEDKLELATSLIETAKAKGVSLLLPTDVVVADKFAPDAESKTVSADAIPDGWMGLDVGPDSIKTFSEALDTTKTVIWNGPMGVFEFEKFAAGTDAIAKQLADLTGKGVTTIIGGGDSVAAVEKAGLADKMSHISTGGGASLELLEGKPLPGVLALDEA
modifications: Phleum Pratense

Tested on: cultured PBMCs of the allergic donors
Experiment: ELISPOT of IL-5 or IFNg production by cultured PBMCs of TG allergic donors in response to peptide
Type: cell-based, human
Details: for NTGA's containing at least one T cell epitope, Th+ (Col 2): NTGA number given = criterion met, TG allergic donors n=20; for No of PG+ & th+ peptides per NTGA / No of PP & Th+ peptides per NTGA: Table 6; for No of PG+ & th+ peptides per NTGA: PG+ peptides recognized by T cells of grass allergic donors (n=20); for No of PP & Th+ peptides per NTGA: PP peptides recognized by T cells of grass allergic donors (n=20); for # Th+: Table 7, peptides per NTGA recognized by T cells of grass allergic donors (n=20); for T cell reactivity of sequences contained in the protein: among top pan-pollen NTGA's ranked by number of PP peptides; for PG+ peptides recognized by grass allergic donors: n=20 grass allergic donors, PG+ peptides of the NTGA
Description: Table 1 indicates for each of the 397 PG+ peptides in which non-grass pollen species a matching peptide with either less than 3, less than 2 or zero mismatches are found. The number of TG grass allergic donors (n=20) with an in vitro T cell response to the TG peptide sequence is also shown.
A set of 93 proteins from Timothy grass (TG) pollen and the assembly of 822 peptides (15 mers) predicted to promiscuously bind HLA class II molecules shown in Table 9 and the immune reactivity in allergic donors have been reported in PCT application WO 2013/119863. […] Immune reactivity was determined by the production of IL-5 or IFNg from cultured PBMCs of the allergic donors in response to stimulation with a peptide and IL-5 and IFNg were measured by ELISPOT as described in Oseroff C et al, 2010.
In short, T cell immune reactivity was determined using PBMCs isolated from study participants and stored in liquid nitrogen until further use. For experimental testing, PBMCs were thawed and expanded in vitro with TG pollen extract (50 μg/mL) or the peptide pool ([…]). The TG extract and peptide pools had each been previously titrated to determine optimal stimulation concentrations.
Cytokine production by cultured PBMCs in response to antigen stimulation was measured by ELISPOT. Cells (1×10^5 cells/well) were plated and incubated with peptide (10 μg/mL), the peptide pool (5 μg/mL), or the TG extract (50 μg/mL). Phytohaemagglutinin (10 μg/mL) and medium alone were used as positive and negative controls, respectively. Samples were considered to produce a cytokine if 100 spot-forming cells (SFCs)/10^6 PBMCs were detected, with P .05 and a stimulation index of 2 or more. Criteria for individual peptides were the same except that a minimum of 20 SFCs were required for a sample to be counted as positive.
Table 3 lists the 397 PG+ peptides and indicates for each non-grass pollen species whether a matching peptide with either less than 3, less than 2 or zero mismatches could be detected. The immune reactivity of the TG peptide was assessed as the number of TG grass allergic donors (n=20) having in vitro T cell response against the TG peptide.

Molecule	immune reactivity (SFC counts in ELISPOT) of highly conserved PG+ peptides derived from the NTGA	NTGA's containing at least one T cell epitope, Th+ (Col 2)	No of PG+ & th+ peptides per NTGA	No of PP & Th+ peptides per NTGA	# Th+	T cell reactivity of sequences contained in the protein	PG+ peptides recognized by grass allergic donors
B1	high immune reactivity	7	9	6	4	highly T cell reactive sequences	two
B2	high immune reactivity	2	15	12	5	highly T cell reactive sequences	two
B3	high immune reactivity	24	11	8	2	–	two
